Laboratory results taken from patent US20080045697A1 (Genentech, published 2008).

Biological target: T1, complement C3b (UniProt P01024 23-667; P01024 751-1663)
T1 construct: range 1-645;range 729-1641; The residue numbers seem to count on C3 without its signal peptide
Test: Fig. S13A-C and results not shown

T1 sequence (P01024 23-667 limits assumed, chain 1 of 2): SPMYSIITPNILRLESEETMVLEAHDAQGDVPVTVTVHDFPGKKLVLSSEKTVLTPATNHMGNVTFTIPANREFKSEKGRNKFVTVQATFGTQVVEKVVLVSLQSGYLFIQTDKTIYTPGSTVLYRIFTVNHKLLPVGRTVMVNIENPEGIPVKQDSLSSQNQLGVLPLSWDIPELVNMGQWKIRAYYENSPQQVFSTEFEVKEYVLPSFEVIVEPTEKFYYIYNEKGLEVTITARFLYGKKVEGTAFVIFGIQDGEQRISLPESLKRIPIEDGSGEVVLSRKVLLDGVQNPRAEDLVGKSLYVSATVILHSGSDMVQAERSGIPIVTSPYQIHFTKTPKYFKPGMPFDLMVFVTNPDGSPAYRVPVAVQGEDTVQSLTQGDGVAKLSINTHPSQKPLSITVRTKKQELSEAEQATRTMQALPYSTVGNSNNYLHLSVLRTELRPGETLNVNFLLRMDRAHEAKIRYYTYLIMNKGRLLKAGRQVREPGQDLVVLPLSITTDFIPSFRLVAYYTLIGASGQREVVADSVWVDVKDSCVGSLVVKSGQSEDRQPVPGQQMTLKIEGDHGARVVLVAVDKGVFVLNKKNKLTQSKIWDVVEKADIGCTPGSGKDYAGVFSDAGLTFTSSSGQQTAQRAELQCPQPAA
T1 sequence (P01024 751-1663 limits assumed, chain 2 of 2): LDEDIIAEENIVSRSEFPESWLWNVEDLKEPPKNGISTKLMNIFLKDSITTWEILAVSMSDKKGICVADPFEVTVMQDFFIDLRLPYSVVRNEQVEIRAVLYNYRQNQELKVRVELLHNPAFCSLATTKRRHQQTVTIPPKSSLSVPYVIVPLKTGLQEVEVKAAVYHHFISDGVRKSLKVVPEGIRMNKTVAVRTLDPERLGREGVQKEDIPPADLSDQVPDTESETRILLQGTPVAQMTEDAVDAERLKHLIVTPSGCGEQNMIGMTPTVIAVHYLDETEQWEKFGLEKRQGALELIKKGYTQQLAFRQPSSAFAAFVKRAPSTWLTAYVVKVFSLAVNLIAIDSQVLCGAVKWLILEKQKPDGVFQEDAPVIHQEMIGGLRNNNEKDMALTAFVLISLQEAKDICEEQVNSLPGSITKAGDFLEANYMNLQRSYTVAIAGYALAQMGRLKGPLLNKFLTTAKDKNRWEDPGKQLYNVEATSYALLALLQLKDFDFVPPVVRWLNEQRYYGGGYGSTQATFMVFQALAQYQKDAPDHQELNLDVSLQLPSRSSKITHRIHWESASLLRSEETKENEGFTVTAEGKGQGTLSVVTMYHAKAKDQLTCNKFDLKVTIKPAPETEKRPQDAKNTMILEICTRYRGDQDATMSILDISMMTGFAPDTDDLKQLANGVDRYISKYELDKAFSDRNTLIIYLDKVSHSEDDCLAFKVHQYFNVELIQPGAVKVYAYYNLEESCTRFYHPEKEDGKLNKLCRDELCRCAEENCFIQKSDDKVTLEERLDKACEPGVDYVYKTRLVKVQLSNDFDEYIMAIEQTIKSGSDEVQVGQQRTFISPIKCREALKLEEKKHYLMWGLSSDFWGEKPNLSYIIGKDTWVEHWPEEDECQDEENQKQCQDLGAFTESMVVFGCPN

B1: complement factor H (other, UniProt P08603 19-1231, looked up)
chain: EDCNELPPRRNTEILTGSWSDQTYPEGTQAIYKCRPGYRSLGNVIMVCRKGEWVALNPLRKCQKRPCGHPGDTPFGTFTLTGGNVFEYGVKAVYTCNEGYQLLGEINYRECDTDGWTNDIPICEVVKCLPVTAPENGKIVSSAMEPDREYHFGQAVRFVCNSGYKIEGDEEMHCSDDGFWSKEKPKCVEISCKSPDVINGSPISQKIIYKENERFQYKCNMGYEYSERGDAVCTESGWRPLPSCEEKSCDNPYIPNGDYSPLRIKHRTGDEITYQCRNGFYPATRGNTAKCTSTGWIPAPRCTLKPCDYPDIKHGGLYHENMRRPYFPVAVGKYYSYYCDEHFETPSGSYWDHIHCTQDGWSPAVPCLRKCYFPYLENGYNQNYGRKFVQGKSIDVACHPGYALPKAQTTVTCMENGWSPTPRCIRVKTCSKSSIDIENGFISESQYTYALKEKAKYQCKLGYVTADGETSGSITCGKDGWSAQPTCIKSCDIPVFMNARTKNDFTWFKLNDTLDYECHDGYESNTGSTTGSIVCGYNGWSDLPICYERECELPKIDVHLVPDRKKDQYKVGEVLKFSCKPGFTIVGPNSVQCYHFGLSPDLPICKEQVQSCGPPPELLNGNVKEKTKEEYGHSEVVEYYCNPRFLMKGPNKIQCVDGEWTTLPVCIVEESTCGDIPELEHGWAQLSSPPYYYGDSVEFNCSESFTMIGHRSITCIHGVWTQLPQCVAIDKLKKCKSSNLIILEEHLKNKKEFDHNSNIRYRCRGKEGWIHTVCINGRWDPEVNCSMAQIQLCPPPPQIPNSHNMTTTLNYRDGEKVSVLCQENYLIQEGEEITCKDGRWQSIPLCVEKIPCSQPPQIEHGTINSSRSSQESYAHGTKLSYTCEGGFRISEENETTCYMGKWSSPPQCEGLPCKSPPEISHGVVAHMSDSYQYGEEVTYKCFEGFGIDGPAIAKCLGEKWSHPPSCIKTDCLSLPSFENAIPMGEKKDVYKAGEQVTYTCATYYKMDGASNVTCINSRWTGRPTCRDTSCVNPPTVQNAYIVSRQMSKYPSGERVRYQCRSPYEMFGDEEVMCLNGNWTEPPQCKDSTGKCGPPPPIDNGDITSFPLSVYAPASSVEYQCQNLYQLEGNKRITCRNGQWSEPPKCLHPCVISREIMENYNIALRWTAKQKLYSRTGESVEFVCKRGYRLSSRSHTLRTTCWDGKLEYPTCAKR
notes: also called fH
- binding result: binds
